Here are results for one molecule from patent US10508147B2, “Anti-nodal antibodies and methods of using same” (ANN AND ROBERT H. LURIE CHILDREN'S HOSPITAL OF CHICAGO, priority 2014, dated 2019).

The target of this experiment is T1, rhNodal (Homo sapiens, UniProt Q96S42).
T1 construct: E. coli derived His238 Leu347, with an N-terminal Met; purchased R&D System 3218ND; host or cells: E. coli
T1 sequence (Q96S42 238-347): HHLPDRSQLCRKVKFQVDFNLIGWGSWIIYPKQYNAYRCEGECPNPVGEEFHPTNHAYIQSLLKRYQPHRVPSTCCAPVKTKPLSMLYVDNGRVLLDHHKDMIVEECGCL
The experiment in a line: SPR direct binding of mAbs and 3D1 fragments to rhNodal immobilized on a CM5 sensor chip. How it is done:
Antibodies (mAbs) that selectively recognized wild type human Nodal (E49E50) were further screened in order to identify mAbs that bound full length Nodal. Surface plasmon resonance (SPR) biosensor direct binding assay was used. Recombinant human Nodal protein (rhNodal, E. coli derived His238 Leu347, with an N-terminal Met Accession # Q96S42, cat. num 3218ND, R&D System) was immobilized on a CM5 sensor chip.
SPR analyses were performed on a Biacore 3000 instrument from GE Healthcare, using CM5 sensor chips and certified HBS buffer (20 mM HEPES, 0.15 M NaCl, pH 7.4, P20, 0.005%). Protein immobilization was carried out following the canonical amine coupling chemistry using the surface immobilization wizard procedure, operating at 5 μL/min. Channels were activated with EDC/NHS for 7 min; for the binding assays of purified mAbs to Nodal protein, rhNodal, opportunely diluted in the pre-selected sodium acetate buffer pH 4.5, was coupled until a 4000 RU level was achieved. Residual reactive groups on the sensor chip surface were deactivated by addition of 1.0 M ethanolamine hydrochloride, pH 8.5. Antibody binding was tested at 20 μL/min injecting solutions of 3D1 (60 μL) in HBS-EP at increasing concentrations (6-100 nM). A 10 mM NaOH solution was used to regenerate the chip surface.
After the single-dose screening, dose-dependent binding analyses were carried out with the two antibodies, 3D1 and 5F10, able to bind the full-length protein. Binding of 3D1 was carried out at concentrations ranging between 6 and 100 nM. For 5F10 higher concentrations were required (100, 250, 500 and 750 nM). Dissociations were monitored for at least 500 s. To carry out the mapping of the 3D1 epitope, the whole antibody was immobilized at 5 μg/mL in 10 mM NaAc buffer pH 5 at a flow rate of 5 μL/min by standard amine coupling chemistry on a CM5 sensor chip. The immobilization level reached with the mAb was about 5350 RU. On another channel of the same sensor chip, the 3D1 Fab′ was immobilized at 10 μg/mL in 10 mM NaAc buffer pH 4.5 at a flow rate of 5 μL/min, following the standard amine coupling chemistry. The amount of immobilized Fab′ was about 2570 RU. Residual reactive groups were deactivated by 1M ethanolamine hydrochloride, pH 8.5. The blank channel was prepared as already described. Real-time binding analyses were performed at a flow rate of 20 μL/min, using HBS-EP buffer, injecting a constant sample volume of 60 μL. Peptides opportunely diluted in HBS-EP buffer were injected at the following concentrations: 0.5, 1, 2.5, 5, 10, and 20 μM. Dissociations were monitored for at least 500 s; the regeneration solution was 5 mM NaOH.
For each analysis, experimental sensorgrams were aligned, subtracted of blank signals and overlapped. All mathematical manipulations and fitting were performed using the BiaEvaluation software, vers. 4.1 from GE Healthcare. All experimental data gave optimal fittings when processed assuming a 1:1 Langmuir binding interaction.
SPR analyses were performed at 25° C. using HBS as running buffer. Protein immobilization was carried out following the canonical amine coupling chemistry using the surface immobilization wizard procedure, operating at 5 μL/min. Channels were activated with EDC/NHS [N-(3-dimethylaminopropyl)-N′-ethylcarbodiimide hydrochloride(EDC)/[…](NHS) for 7 min; for the binding assays, rhNodal, appropriately diluted in the pre-selected sodium acetate buffer pH 4.5, was coupled until a 4000 RU level was achieved. Residual reactive groups on the sensor chip surface were deactivated by addition of 1.0 M ethanolamine hydrochloride, pH 8.5. Antibody binding was tested at 20 μL/min injecting solutions of 3D1 (60 μL) in HBS at increasing concentrations (6.0 nM-100 nM). A 10 mM NaOH solution was used to regenerate the chip surface. […]

Several values for one entry are separate records, joined by “and”; a condition that tells them apart may be missing. Equal entries are not always repeated.

B1: 3D1: mouse monoclonal anti-Nodal antibody raised against hNodal(44-67); light chain SEQ ID NO:1, heavy chains SEQ ID NO:2 and 3 (protein)
light: DIKMTQSPASLSASVGETVTITCRASGNIHNYLAWYQQKQGKSPQLLVYNAKTLADGVPSRFSGSGSGTQYSLKINSLQPEDFGSYYCQHFWSTPHVRCWDQAGTETEAW
heavy 1: VKLVESGGGLVKPGGSLKLSCAASGFTFSSYAMSWVRQTPEKRLEWVASISSGGCTYYPDSVKGRFTISRDNARNILYLQMSSLRSEDTAMYYCARGSMITADGNSLLLCYGLLGSRNLXHR
heavy 2: VKLVESGGGLVQPGGSMKLSCVASGFTFRNYWMSWVRQSPEKGLEWVAEIRLKSDNYAARYAESVKGKFTISRDDSKSRLYLQMNSLRAEDTGIYYCTGIRRFAYWGQGTL
modifications: not fully specified; (120)..(120) Xaa can be any naturally occurring amino acid
In general, Kd refers to the constant that tells how readily two partners part at equilibrium. B1 gave an average kd of 0.000655 s⁻¹. Where the note is “Average over concentrations”, this molecule returned a Kd of 1.42 nM, a ka of 695000 M⁻¹ s⁻¹ and a kd of 0.000655 s⁻¹. Further, the Kd (Example 1, hNodal immobilized on CM5 chip, antibody injected) is roughly 1.3 nM. For the same molecule, the Kd (Examples 2 and 4, running text, averaged over dose-dependent runs) was 1.42 nM and 1.4 nM. Also, where the note is “analyte injected at 6 nM”, binding was put at a Kd of 0.491 nM, the ka was determined as 1.28e+06 M⁻¹ s⁻¹ and the kd is 0.000629 s⁻¹. Under “analyte injected at 12 nM”, this molecule displayed a Kd of 0.698 nM, a ka of 979000 M⁻¹ s⁻¹ and a kd of 0.000683 s⁻¹. Where the note is “analyte injected at 25 nM”, this molecule yielded a Kd of 0.968 nM, a ka of 642000 M⁻¹ s⁻¹ and a kd of 0.000622 s⁻¹. Besides, under “analyte injected at 50 nM”, the Kd was found to be 1.93 nM, the ka was found to be 361000 M⁻¹ s⁻¹ and the kd worked out at 0.000697 s⁻¹. Where the note is “analyte injected at 100 nM”, this molecule gave a Kd of 3.03 nM, a ka of 212000 M⁻¹ s⁻¹ and a kd of 0.000644 s⁻¹. Besides, the “ability to bind the full-length rhNodal protein” value (single-dose SPR screening, mAbs at 100 nM) is “able to bind the full-length rhNodal protein”.
